# Results: the supplement of paper PMC9170038
# Test system: MS2 coat protein
# Test: apparent KD of MS2 coat protein; designed switch direction (-1 OFF switch, 1 ON switch): -1; higher = weaker reporter binding
# In short: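 Designed RNA switches sharing common flanks were transcribed on Illumina chips by stalled E. coli RNA polymerase. They were titrated with SNAP-549-labelled MS2 coat protein, from 0.7 or 1.5 nM doubling to 3 µM, in Tris-HCl pH 7.5 buffer with KCl, MgCl2, BSA, DTT, tRNA and Tween-20. Titrations ran without input, with 200 uM small-molecule ligand, or with an oligonucleotide input. The apparent KD of each design is the median over its clusters, after curve-fitting of normalised cluster fluorescence.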
# [1] = input ligand: microRNA oligo, concentration not stated
# [2] = Eterna round: R95, input ligand: FMN 200 uM
# [3] = Eterna round: R95, input ligand: microRNA oligo, concentration not stated
# [4] = Eterna round: R95, input ligand: none
Sequence,apparent KD of MS2 coat protein (input ligand: FMN 200 uM) [nM],apparent KD of MS2 coat protein (input ligand: none) [nM],apparent KD of MS2 coat protein [1] [nM],apparent KD of MS2 coat protein [2] [nM],apparent KD of MS2 coat protein [3] [nM],apparent KD of MS2 coat protein [4] [nM]
"GUCUCAGCUGAGGAUAUAAACUCCCUUGAGGGUUUAGAAGGCAGUACAUGAGGAUCACCCAUGUGGUUCGUUUG [eternacac ex6r4 sub27] (Eterna round: R97, puzzle: Exclusion 6)",486,139,,,,
"AGUAACUCAUGAGGAUAUCACAUGAGGAUCACCCAUGUAUAGCGCGCUAUGCUAGUCCUCGUAUAUGAGAAGGUAUGAUAAAUG [JL ViennaUCT Quve mod 3] (Eterna round: R96, puzzle: Exclusion NG 2)",22,25.7,15.7,,,
"UUUUUAGUGCUUUUUAAGUACAUGAGGAUCACCCAUGUACUUGUCUGGUGGUCCGGACAAGCUUUUUGCUCGUCUAA [Sensor v3 - turn-off variant 1 - 1] (puzzle: Sensor v3, turn-off variant 1)",,,,48.9,33,59.7
"ACAUAGGUAGGAUAUCUAAGUUGAUACAUGAGGAUCACCCAUGUGUUACUCAAGAUCUACAGAGAAGGGCCUGAGG [Eternabot (L2) Solution 93] (Eterna round: R97, puzzle: Exclusion 5)",19.7,15.3,,,,
"ACUUACUGAGGAUAUACAUAGAUUUACAUGAGGAUCACCCAUGUUCCUCUAUGUAUAAAUGUAGAAGGCAGAAGUU [Mat - Exclusion 5 - JL Mod - D56] (Eterna round: R97, puzzle: Exclusion 5)",107,21.5,,,,
"UAUGAUGCAGGAUAUACAUGAGGAUCACCCAUGUCUCCAAGGGAUAAAGCCAGGCGCUGUAGAAGGGCGACGAC [Eternabot (L1) Solution 28] (Eterna round: R97, puzzle: Exclusion 3)",26.9,27.4,,,,
CUGUACAUAGGAUAUAGUUGCUUUUACAUGAGGAUCACCCAUGUCACUCCUCUCUCUCUUCUAGAAGGAUGUUUCU [JR_E5_Sub009] (puzzle: Exclusion 5),,,,,68.4,
"GAGAGAAUCUAGGAUAUAUCAAGAGAAGGAGAGAUAGAAGGAGGGACAUGAGGAUCACCCAUGUCUUCGUGUAG [Default title] (Eterna round: R97, puzzle: Exclusion 6)",15.6,16,,,,
"AGCUAGUCAGGAUAUACGUAAAUGUCGAAAGACGUAUUGGGACAUGAGGAUCACCCAUGUAGAAGGGACUAGCA [Mod of Janderson's WEB Mod v.1] (Eterna round: R96, puzzle: Exclusion 2)",168,24.8,19.7,,,
"AGUACUAACACGUCAGUGUUAGUACAAUAAGCUUGUGAAACAUGAGGAUCACCCAUGUCCUCAUAAGCUCGUCUUAU [salish99_TOv2_r3_062] (puzzle: Sensor v3, turn-off variant 2)",,,,17.3,602,16.1
"AGCCGGUCGUGAGGAUAUUACAUGAGGAUCACCCAUGUCGACGGGCUACGGGCGGUCGGCUCGUGUGAGAAGGCGCGCCCGGAA [Tibibiza] (Eterna round: R96, puzzle: Exclusion NG 2)",17.3,17.6,8.33,,,
"GCUACCAGAGUGAGGAUAUCGGAUGCGCAAGCACACGAGAAGGCACAUGAGGAUCACCCAUGUAUGGUAGCCGU [eternacac ex4r4 #9] (Eterna round: R97, puzzle: Brourd's mod of Exclusion 4)",13.2,39.1,,,,
GUUAGACAUGAGGAUCACCCAUGUGAGGAUAUGAUGAGAAUGAAGUAAGAAGUAGGAAUCAGAAGGCACAUAUG [Mat - Mod of Hyphema D31] (puzzle: Exclusion 1),,,,177,106,132
"GGUUAGGCAGGAUAUACCCACAGUGUCUGUAGAAUCGCAAGACAUGAGGAUCACCCAUGUAGAAGGGCCGACCG [Eternabot (L1) Solution 1] (Eterna round: R97, puzzle: Exclusion 2)",184,273,,,,
"AAAGUGUUAGGAUAUAGGCGCAGCCAGACGCAGGAAGCGUCCUAGAAGGAACAUGAGGAUCACCCAUGUGGGCG [Eternabot (Original) Solution 41] (Eterna round: R97, puzzle: Exclusion 4)",1180,364,,,,
"CCAUGUCCGGAGGAUAUGCGCAGACUUACUGCAGCAGAAGGUUGGACUUGAGGAUCACCCAAGUGACCAUUUGU [Esrebionra] (Eterna round: R97, puzzle: Exclusion 6)",445,36,,,,
"CAUCCUAUUGUAGGAUAUCCGCUUAUUAUAUUGGGAGAAGGACAUGAGGAUCACCCAUGUGUGUAAUCAGAUGUGCGUGUUAAC [an other try] (Eterna round: R96, puzzle: Exclusion NG 1)",173,82.2,66.1,,,

Sequence,apparent KD of MS2 coat protein (input ligand: FMN 200 uM) [nM],apparent KD of MS2 coat protein (input ligand: none) [nM],apparent KD of MS2 coat protein [1] [nM],apparent KD of MS2 coat protein [2] [nM],apparent KD of MS2 coat protein [3] [nM],apparent KD of MS2 coat protein [4] [nM]
"AUUAUGUUAGGAUAUGCUUAUGGUGGAUAGUCCAGUAUGGUGCAGAAGGGACAUGAGGAUCACCCAUGUGCUGA [EX4 #32] (Eterna round: R97, puzzle: Exclusion 4)",50.9,52.8,,,,
AUUAAUCAGCAGGAUAUAAGUAUCUGAAGGUGGUUAGAAGGGCUGACAUGAGGAUCACCCAUGUGCUCUUCGUG [Vevetigeat] (puzzle: Exclusion 6),,,,,12.4,
"GGUACUCAAAGAGUACCAAUACGAACAUGAGGAUCACCCAUGUAGGAUAUGCUACUCAAAGAGUAGCAGAAGGACGUGUACCUU [Far Half Aptamer v1] (Eterna round: R96, puzzle: Exclusion NG 3)",,,18.5,,,
"AGUCCUGCGGUGAGGAUAUAUUUGUAGCCAUUCAGGUAGAAGGCACUUGAGGAUCACCCAAGUAAAGAACCAAC [Releat] (Eterna round: R97, puzzle: Brourd's mod of Exclusion 4)",39,28,,,,
"GUCAUGUAAGGAUAUCUUACAUGUGACUUCGGUCACUGUCAAGAGAAGGUACAUGAGGAUCACCCAUGUUCGAC [Ex4-3: 52] (Eterna round: R96, puzzle: Exclusion 4)",26.4,21,19.2,,,
GGUGCGUAUGUGAGGAUAUGCUGGUCCUUGGCUCGGCAGAAGGCACAUGAGGAUCACCCAUGUGGUGUCGUACA [salish99_Bmod_ex4_072] (puzzle: Brourd's mod of Exclusion 4),,,,,73.5,
"GCGUAGUAUGUAGGAUAUCGGUCAGUUUCUGAUCGAGAAGGACAUGAGGAUCACCCAUGUAAAUUGCCCGCUUUGUGGGUACGC [JL ENG1 3.60] (Eterna round: R96, puzzle: Exclusion NG 1)",59.3,22.5,19.1,,,
AAAAGAGUAGGAUAUCUGACGCGAAACAUGAGGAUCACCCAUGUAGGGCGGUCCUGCUUAAGAGAAGGGCUCUAAU [Arorxebile] (puzzle: Exclusion 5),,,,155,119,164
"AGAGUGCUGCGAGGAUAUACAUGAGGAUCACCCAUGUUUUCGUGUGAGGCAAAGCCUCACACGAUGUAGAAGGCGCAGUACUCA [Mat - Exclusion NG 2 - Mod of JL - D36] (Eterna round: R96, puzzle: Exclusion NG 2)",13.2,14.6,9.73,,,
UAUAAGGUAGGAUAUACGAAUAAAUAGGGUAGAAUAAUAACACAUGAGGAUCACCCAUGUAGAAGGACCAAGAU [Mat - Exclusion 2 - Mod of my Tesla design - D29] (puzzle: Exclusion 2),,,,44.5,20.5,24.8
"CUACUAGAGACGCGUGGGAACAUGAGGAUCACCCAUGUCAAUGGAGUUUAAACAGGCCCGUCGUUUUGCUCGUCGUG [Eternabot (L2) Solution 41] (Eterna round: R97, puzzle: Sensor, turn-off variant 1)",113,132,,,,
UUGUACAUAGGAUAUAGUUGUUUGUACAUGAGGAUCACCCAUGUUAUGUAUGUUUUGUUUCUAGAAGGAUGUUGAU [JR_E5_Sub003] (puzzle: Exclusion 5),,,,,47.1,
AGAUGGCGAGGAUAUACAUGAGGAUCACCCAUGUGAGAAGAAGAAGUGAGGAAGAAAAGUAGAAGGCGCUGUCA [Mat - Exclusion 3 - Mod of Salish D20] (puzzle: Exclusion 3),,,,145,50.3,44.9
"UAGAUGGGAGGAUAUGCGUAGAUGCAGGUUCGUGUGGUGCUACAUGAGGAUCACCCAUGUAGAAGGCCCGUCUU [Mod 7 R3 JL-ex2-2.29 - Jieux - Exclusion 2] (Eterna round: R97, puzzle: Exclusion 2)",20.7,17.6,,,,
"AGAGAAUACUCAGGAUAUCUGAAUAGAAAGAGAAGAGAAGGGAGACAUGAGGAUCACCCAUGUGAAGUCUUGAGGCUGCAUGGA [Prohibition 25 - Jieux - Exclusion NG 1] (Eterna round: R96, puzzle: Exclusion NG 1)",83.5,106,145,,,
"ACUCCUCCUGUUAGGAUAUGCAUCGGGCUUCCGCAGCAGAAGGAACAUGAGGAUCACCCAUGUCAAAUAAAAUC (Eterna round: R97, puzzle: Brourd's mod of Exclusion 4)",243,26.3,,,,
